# Numbering of substitutions follows the chain as printed.
# B1: 27B2 (antibody, human IgG2, lambda, V domains shown)
# VH: QVQLVESGGGVVQPGRSLRLSCAASGFTFSSYGMHWVRQAPGKGLEWVAAIWYDGSNKYYAESVKGRFTISRDNSKYTLYLQVNSLRAEDTAVYYCARRGGLAARPGGLDVWGQGTTVTVAS
# VL: SYELTQPPSVSVSPGQTISISCSGDKLGDKNACWYQQKPGQSPGLVIYQDSKRPLGIPARFSGSNSGNTATLTISGTQAMDEADYYCQAWDISTVVFGGGTKLTVLG
# notes: Fully human XenoMouse antibody; Tested as hybridoma supernatant, the VH ends '...TTVTV' without the final 'SS'; also called 27B2.6; L4/H4
# B2: 131D12 (antibody, human IgG2, lambda, V domains shown)
# VH: QGQLVESGGGVVQPGRSLRLSCAASGFTFSSYGMHWVRQAPGKGLEWVAVIWHDGSNKYYADSVKGRFTISRDNSKNTLYLQMNSLRAEDTAVYYCARVVPDNWNQDYYGMDVWGQGTTVTVSS
# VL: SYELTQPPSVSVSPGQTASITCSGDKLGDKYACWFQQKPGQSPVLVIYQDSKRPFGIPDRFSGSKSGNTATLTISGTQAMEEADYYCQAWDSSTAVFGGGTKLTVLG
# notes: Fully human XenoMouse antibody; also called L3/H3; VL3/VH2
# B3: 101F7 (antibody, human IgG2, lambda, V domains shown)
# VH: QVQLVQSGAEVKKPGASVKVSCKASGYTFSSYGISWVRQAPGQGLEWMGWISAYNGNTNYAQKFQGRVTMTTDTSTSTAYMELRSLRSDDTAVYYCAREVRLAARPDHYYGMDVWGQGTTVTVSS
# VL: QSVLTQPPSVSAAPGQKVTISCSGSSSNIGINYVSWYQLLPGTAPKLLIYDNNKRPLGIPDRFSGSKSGTSATLGITGLQTGDETDYYCGTWDSSLSAWVFGGGTKLTVLG
# notes: Fully human XenoMouse antibody; also called L1/H1; VL1/VH1
# B4: 103B7 (antibody, human IgG2, lambda, V domains shown)
# VH: B3 VH
# VL: B3 VL with A72V, T85A, Y88F, S95N
# notes: Fully human XenoMouse antibody; also called L2/H2; VL2/VH1
# Target: T1, human D374Y PCSK9 mutant (human, UniProt Q8NBP7 31-692, limits assumed)
# T1 construct: It was biotinylated in the assay; also called biotinylated human D374Y PCSK9
# T1 sequence (Q8NBP7 other isoform, or with tags, fused parts or gaps D374Y D374Y limits assumed): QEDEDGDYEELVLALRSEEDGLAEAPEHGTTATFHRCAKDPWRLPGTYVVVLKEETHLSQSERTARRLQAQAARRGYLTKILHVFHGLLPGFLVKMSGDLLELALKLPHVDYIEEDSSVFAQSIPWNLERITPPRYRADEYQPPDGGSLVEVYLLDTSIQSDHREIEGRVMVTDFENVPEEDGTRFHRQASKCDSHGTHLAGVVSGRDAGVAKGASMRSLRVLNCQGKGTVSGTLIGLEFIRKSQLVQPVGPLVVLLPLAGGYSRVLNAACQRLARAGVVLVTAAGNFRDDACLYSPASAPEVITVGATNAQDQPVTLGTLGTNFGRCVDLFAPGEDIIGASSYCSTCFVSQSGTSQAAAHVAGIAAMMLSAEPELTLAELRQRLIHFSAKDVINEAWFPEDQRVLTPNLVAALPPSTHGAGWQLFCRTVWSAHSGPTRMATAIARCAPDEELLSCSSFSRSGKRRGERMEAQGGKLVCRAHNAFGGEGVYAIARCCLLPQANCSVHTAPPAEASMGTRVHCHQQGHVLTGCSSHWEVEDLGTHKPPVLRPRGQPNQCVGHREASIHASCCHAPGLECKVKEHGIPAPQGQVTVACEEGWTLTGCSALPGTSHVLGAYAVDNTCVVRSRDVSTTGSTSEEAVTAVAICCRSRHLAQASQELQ
# Experiment: receptor-ligand blocking ELISA: supernatant pre-incubated with biotinylated D374Y PCSK9, binding to captured LDLR
# Method: The plates were coated with goat anti-LDLR (R&D Cat #AF2148) at 2 μg/ml in 1λPBS/0.05% Azide at a volume of 40 μl/well. The plates were incubated at 4° C. overnight. The plates were then washed using a Titertek plate washer (Titertek, Huntsville, Ala.). A 3-cycle wash was performed. The plates were blocked with 90 μl of 1λ PBS/1% milk and incubated approximately 30 minutes at room temperature. The plates were then washed using the Titertek plate washer. A 3-cycle wash was performed. […] The plates were then incubated for 1 hour and 10 minutes at room temperature. […] The plates were then pre-incubated for about 1 hour and 30 minutes at room temperature. Next, the plates were washed using the Titertek plate washer operated using a 3-cycle wash. 50 μl/well of the pre-incubated mixture was transferred onto the LDLR coated ELISA plates and incubated for 1 hour at room temperature. To detect LDLR-bound b-PCSK9, 40 μl/well streptavidin HRP at 500 ng/ml in assay diluent was added to the plates. The plates were incubated for 1 hour at room temperature. The plates were again washed using a Titertek plate washer. A 3-cycle wash was performed. Finally, 40 μl/well of One-step TMB (Neogen, Lexington, Ky.) was added to the plate and was quenched with 40 μl/well of 1N hydrochloric acid after 30 minutes at room temperature. OD's were read immediately at 450 nm using a Titertek plate reader.
row,% R-L Inhibition [%],Binder
1,93,B1
2,92,B2
3,94,B3
4,93,B4

# Target: T2, human proprotein convertase subtilisin kexin type 9 (self-cleaved, mature, secreted PCSK9) (human, UniProt Q8NBP7 31-692)
# T2 construct: Self-cleavage means the pro-domain and the catalytic/C-terminal part are separate, associated polypeptides; also called huPCSK9; wild-type PCSK9
# T2 sequence (Q8NBP7 other isoform, or with tags, fused parts or gaps): as the sequence (Q8NBP7 other isoform, or with tags, fused parts or gaps D374Y D374Y limits assumed) above, with Y344D counted along it
# Experiment: ELISA, hybridoma supernatant on neutravidin-captured biotinylated PCSK9
# Method: A primary screen for antibodies which bind to wild-type PCSK9 was performed. The primary screen was performed on two harvests. The primary screen comprised an ELISA assay and was performed using the following protocol:
# The plates were coated with neutravadin at a concentration of 4 μg/ml in 1×PBS/0.05% Azide, at a volume of 40 μl/well. The plates were incubated at 4° C. overnight. The plates were then washed using a Titertek plate washer (Titertek, Huntsville, Ala.). A 3-cycle wash was performed. The plates were blocked with 90 μl of 1×PBS/1% milk and incubated approximately 30 minutes at room temperature. The plates were then washed. Again, a 3-cycle wash was performed. The capture sample was biotinylated-PCSK9, and was added at 0.9 μg/ml in 1×PBS/1% milk/10 mM Ca²⁺ at a volume of 40 μl/well. The plates were then incubated for 1 hour at room temperature. Next, the plates were washed using the Titertek plate washer operated using a 3-cycle wash. 10 μl of supernatant was transferred into 40 μl of 1×PBS/1% milk/10 mM Ca²⁺ and incubated 1.5 hours at room temperature. Again the plates were washed using the Titertek plate washer operated using a 3-cycle wash. 40 μl/well of Goat anti-Human IgG Fc HRP at a concentration of 100 ng/ml (1:4000) in 1λ PBS/1% milk/10 mM Ca²⁺ was added to the plate and was incubated 1 hour at room temperature. The plates were washed once again, using a 3-cycle wash. Finally, 40 μl/well of One-step TMB (Neogen, Lexington, Ky.) was added to the plate and quenching with 40 μl/well of 1N hydrochloric acid was performed after 30 minutes at room temperature. OD's were read immediately at 450 nm using a Titertek plate reader. Positive binding was determined as 3 times the average of signal of the negative control which was hybridoma supernatant.
Early primary screen OD,Late primary screen OD,Binder
4.9 OD (450 nm),4.2 OD (450 nm),B1
3.3 OD (450 nm),3.56 OD (450 nm),B2
3.45 OD (450 nm),3.91 OD (450 nm),B3
4.03 OD (450 nm),3.46 OD (450 nm),B4

# Target: T2, human proprotein convertase subtilisin …
# Experiment: competition ELISA, supernatant pre-incubated with b-PCSK9; competitor 31H4 coated on plate
# Method: (§1) Hybridoma supernatants were then assayed for direct binding competition. […] The next day each hybridoma supernatant was preincubated with 100 ng/ml b-PCSK9 at a 1:5 final dilution. These samples were then incubated for 2 hours at RT. The precoated antibody capture plates were then washed and the pre-incubated samples of hybridoma Antibody supernatants and B-PCSK9 were added to the plates and incubated for 1 hour at room temperature. Detection of bound b-PCSK9 was done with streptavidin HRP (Thermo P21126) at 500 ng/ml in 1×PBS/1% non fat skim milk. Incubated for 1 hour then added chromogenic substrate TMB, 3,3′,5,5′-tetramethylbenzidine, 40 ul/well incubated anywhere from 15 minutes to 60 minutes depending on OD then stopped with one molar hydrochloric acid. Optical density at 450 nm read on Multiskan Ascent reader. A % Inhibition was then calculated by comparing the amount of bound b-PCSK9 after preincubation with anti-PCSK9 hybridoma sups versus negative control wells using irrelevant hybridoma supernatants. % Inhibition=1−(OD of Ab supernatant/B-PCSK9/OD of Neg. control supernatant/B-PCSK9).
row,% inhibition of 31H4 Binding [%],Binder
1,89,B2
2,82,B3
3,79,B4

# Target: T2, human proprotein convertase subtilisin …
# Experiment: solution equilibrium binding assay on BIAcore, pH 7.4
# Method: (§2) Binding of anti-PCSK9 antibodies to human and cynomolgus monkey PCSK9 was measured by solution equilibrium binding assay on BIAcore. Antibody was immobilized on the second flow cell of a CM5 chip using amine coupling (reagents provided by GE Healthcare, Piscataway, N.J.) with an approximate density of 6000 RU. The first flow cell was used as a background control. For assay at pH 7.4, 0.1 nM or 1.0 nM of PCSK9 were mixed with serial dilutions of antibody (ranging from 0.003 nM to 50 nM) in PBS plus 0.1 mg/mL BSA, 0.005% P20 and incubated at room temperature for 4 hours. For assay at pH 5.5, 0.1 nM or 1.0 nM of PCSK9 were mixed with serial dilutions of antibody (ranging from 0.003 nM to 50 nM) in 10 mM Sodium Citrate, pH 5.5, plus 150 mM NaCl, 0.1 mg/mL BSA, 0.005% P20 and incubated at room temperature for 4 hours. Binding of free PCSK9 in the mixed solutions was measured by injecting over the antibody coated chip surface. One hundred percent PCSK9 binding signal on the antibody surface was determined in the absence of antibody in the solution. A decreased PCSK9 binding response with increasing concentrations of antibody in solution indicated PCSK9 was binding to the antibody, preventing PCSK9 from binding to the immobilized antibody surface. Plotting the PCSK9 binding signal versus antibody concentration, the KD was obtained from nonlinear regression of the competition curves using an n-curve one-site homogeneous binding model provided in the KinExA Pro software.
row,Kd [nM],Binder
1,0.067,B2
2,0.006,B3
3,0.007,B4

# Target: T3, cynomolgus PCSK9 (cynomolgus monkey, UniProt A8T662 31-692 (Macaca nemestrina entry), limits assumed)
# T3 construct: also called cyPCSK9; cynomolgus monkey PCSK9
# T3 sequence (A8T662 31-692 K611R limits assumed): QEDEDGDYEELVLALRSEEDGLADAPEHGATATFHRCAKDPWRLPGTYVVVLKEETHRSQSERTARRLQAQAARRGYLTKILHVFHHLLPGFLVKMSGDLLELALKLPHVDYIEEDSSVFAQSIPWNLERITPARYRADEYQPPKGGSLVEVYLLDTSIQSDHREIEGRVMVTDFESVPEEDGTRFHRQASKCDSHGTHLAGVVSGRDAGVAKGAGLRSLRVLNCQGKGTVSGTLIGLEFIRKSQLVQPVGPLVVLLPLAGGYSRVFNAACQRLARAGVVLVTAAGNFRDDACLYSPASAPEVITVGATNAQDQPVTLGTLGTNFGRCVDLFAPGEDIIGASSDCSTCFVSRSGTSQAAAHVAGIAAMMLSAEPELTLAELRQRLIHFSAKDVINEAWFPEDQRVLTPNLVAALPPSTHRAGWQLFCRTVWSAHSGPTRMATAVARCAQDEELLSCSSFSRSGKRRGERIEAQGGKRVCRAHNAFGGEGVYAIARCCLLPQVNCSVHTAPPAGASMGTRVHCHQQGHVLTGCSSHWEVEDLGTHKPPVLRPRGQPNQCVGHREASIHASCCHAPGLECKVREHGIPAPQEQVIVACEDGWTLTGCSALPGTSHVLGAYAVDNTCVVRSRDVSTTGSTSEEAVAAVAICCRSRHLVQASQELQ
# Experiment: as above
# Method: as §2
row,Kd [nM],Binder
1,1.5,B2
2,0.008,B3
3,0.011,B4

# Target: T2, human proprotein convertase subtilisin …
# Experiment: competition ELISA, supernatant pre-incubated with b-PCSK9; competitor 26H5 coated on plate
# Method: as §1
row,% inhibition of 26H5 Binding [%],Binder
1,90,B2
2,92,B3
3,90,B4

# Target: T2, human proprotein convertase subtilisin …
# Experiment: solution equilibrium binding assay on BIAcore, pH 5.5
# Method: as §2
row,Kd [nM],Binder
1,0.12,B2
2,0.016,B3
3,0.018,B4

# Target: T3, cynomolgus PCSK9
# Experiment: as above
# Method: as §2
row,Kd [nM],Binder
1,3.1,B2
2,0.008,B3
3,0.022,B4

# From patent publication US20160039945A1 (Amgen, published 2016)
